Reference: US10363306B2, “Cytokines and neuroantigens for treatment of immune disorders” (East Carolina University, priority 2009, dated 2019)
Ends that are not written are not given here.

Key:
[1] = Solubility of peptide; assay type: physicochemical; conditions: routinely reconstituted in saline
Protocol: A colony of Lewis rats was maintained at East Carolina University School of Medicine. Animal care and use was approved by the Institutional Animal Care and Use Committee and was performed in accordance with approved institutional guidelines. The synthetic peptide gp69-88 ([…]) (SEQ ID NO. 5) was obtained from Quality Controlled Biologicals, Inc. (Hopkinton, Mass.). The purity of gp69-88 was greater than 98%. […] The OX6 anti-I-A (RT1B) IgG1, the R73 anti-TCRβ IgG1, the OX81 anti-IL-4 IgG1, and the OX18 anti-MHC class I glycoproteins (MHC-I) (RT1A) IgG1 were concentrated by ultrafiltration of B cell hybridoma supernatants through Millipore spiral wound membranes (100 kd exclusion). Hybridomas were obtained from the European Collection of Cell Cultures. The B5 IgM anti-MHC-I (RT1A^a,b,l) mAb was purchased from BD Biosciences. FITC-conjugated goat anti-mouse IgG1 was purchased from Southern Biotechnology (Birmingham, Ala.).

[2] = tested on: BN-GP T cells; test: IFNβ anti-proliferative activity in IL-2 stimulated cultures of BN-GP T cells; assay type: cell-based, rat; conditions: expression supernatants, transient transfection of HEK293 cells
Protocol: FIG. 1. The IFNβ-NAg his-tagged fusion protein was biologically active and was purified on nickel resins. (A) To assess whether IFNβ-NAg induced class I MHC expression, thymocytes (5×10^6/ml in complete RPMI) were cultured with or without IFNβ-NAg for 2 days and then were stained with B5 (anti-MHC-I), OX18 (anti-MHC-I), R73 (anti-TCRβ), or OX81 (anti-IL4; isotype control) and were analyzed by flow cytometry. (B) To assess IFNβ-mediated anti-proliferative activity, supernatants from two independently derived IFNβ-NAg expression systems as well as supernatants from several control expression systems were added at designated titrations (x-axis) to IL-2 stimulated cultures of BN-GP T cells. (C) To assess the specificity of anti-proliferative activity, baculovirus supernatants containing IFNβ-NAg were added at designated titrations to cultures of rat (R1T, BN-GP, RsL.11T, RsL.11, or Conal.8D9) or mouse (CTLL) T cells. Proliferative assays (B & C) were pulsed with [^3H]thymidine on the second day of a 3-day culture. (D) Shown is a representative SDS-PAGE analysis of purified IFNβ-NAg.
FIG. 2. Structure-function analysis of the cytokine and NAg domains of IFNβ fusion proteins. (A) Expression supernatants containing designated IFNβ fusion proteins (see Table 2) were added to cultures of BN-GP T cells at designated titrations (x-axis). (B) The IFNβ-EK-NAg-6his or IFNβ-EK-6his fusion genes were inserted into the pCEP4 expression vector (Invitrogen). Inserts were verified by DNA sequencing, and the genes were expressed by transient transfection of HEK293 cells. Independently derived expression systems of IFNβ-EK-NAg-6his or IFNβ-EK-6his (3 each) were compared in the BN-GP T cell anti-proliferative assay. (C) Independently purified preparations (2 each) of each IFN-β fusion protein (IFNβ-NAg from HEK293 cells, IFNβ-NAg from baculovirus, and IFN-β from HEK293 cells) were added at designated concentrations to assess anti-proliferative activity. Two independently purified preparations of the same fusion protein were tested to verify the reliability of activity for each type of protein. The x-axis was based on the exponent of the molar concentration. For example, a concentration of 100 nM was represented as Log [10^−7]=Log10) (10^−7M)=−7 and was plotted by the exponent of −7. For these experiments (A-C), BN-GP T cells were cultured in IL-2. (D) The MBP-specific RsL.11 T cell clone and irradiated splenic APC were cultured with designated concentrations of purified IFNβ-NAg or GPMBP in the presence or absence of the OX6 anti-MHC-II mAb. (E) Five preparations of purified IFNβ-NAg and six preparations of purified IFN-β were tested for antigenic activity in cultures of RsL.11 T cells and irradiated splenic APC.
The RsL.11 MBP-specific clone was a stable, IL-2 dependent line derived from Lewis rats sensitized with rat MBP in CFA (Mannie, M. D., and M. S. Norris. 2001. MHC class-II-restricted antigen presentation by myelin basic protein-specific CD4+ T cells causes prolonged desensitization and outgrowth of CD4-responders. Cell Immunol 212:51-62). The RsL.11T clone was a transformed variant of the RsL.11 clone. […]

solubility [1] | Molecule | Biological activity of IFNβ in expression supernatants [2]
freely soluble | YGSLPQKSQRSQDENPVVHF [NAg] | 
 | ss-IFNβ-6his: Rat IFNβ with 6-histidine sequence, lacking the EK linker (protein, UniProt P70499 22-184, looked up, C-terminal 6His tag) Interferon beta: IDYKQLQFRQSTSIRTCQKLLRQLNGRLNLSYRTDFKIPMEVMHPSQMEKSYTAFAIQVMLQNVFLVFRSNFSSTGWNETIVESLLDELHQQTELLEIILKEKQEERLTWVTSTTTLGLKSYYWRVQRYLKDKKYNSYAWMVVRAEVFRNFSIILRLNRNFQN | Weak activity
 | ss-IFNβ: Rat IFNβ without non-native C-terminal or N-terminal additions (protein, UniProt P70499 22-184, looked up) Interferon beta: IDYKQLQFRQSTSIRTCQKLLRQLNGRLNLSYRTDFKIPMEVMHPSQMEKSYTAFAIQVMLQNVFLVFRSNFSSTGWNETIVESLLDELHQQTELLEIILKEKQEERLTWVTSTTTLGLKSYYWRVQRYLKDKKYNSYAWMVVRAEVFRNFSIILRLNRNFQN | Potent activity
